From patent US20050227302A1, “Induction of apoptosis via ARTS-IAP complexes” (priority 2004, published 2005)
Each block holds one molecule with its values, some of them ahead of it. Where a SMILES comes first, the peptide text is derived from it. The star is where a group is joined. Cbz = O=C(OCc1ccccc1)*

Tests used:
XIAP [1] = assay: Co-immunoprecipitation of ARTS-XIAP complexes in COS-7 cells; assay type: cell-based, African Green Monkey
Method: (§1) Protein extracts were prepared with lysis buffer (150 mM NaCl, 50 mM Tris-HCl (pH 8), 1% NP-40, 0.5% deoxycholate acid) with protease inhibitors. Lysates containing equal amounts of total protein were pre-cleared overnight with 1 mg mouse IgG (Sigma) coupled with protein A/G-Sepharose mix (Amersham Biosciences) and the beads centrifuged. Supernatants were immuno-precipitated using 5 μl of anti-ARTS antibody for 4 h, anti-XIAP antibody, rabbit anti-myc antibody, or mouse IgG (negative control). Protein A/G Sepharose beads were added for 1 hour and washed four times with PBS. Antibodies against XIAP (as above), Myc (Santa Cruz), or anti-ARTS (NT) antibodies directed against the common N′ terminus of ARTS and H5 (ProSci Incorporated) were used for Western blot.

XIAP [2] = assay: XIAP protein levels by Western blot in COS-7 cells; assay type: cell-based, African Green Monkey
Method: as §1
(§2) Stably transfected COS-7 pE-ARTS cells were generated using the pEF1-IRES vector (Hobbs S et al, Biochem Biophys Res Commun 252: 368-372, 1998). The construct contains an EF-1 promoter followed by a multi cloning site, an EMC (Encephalomyocarditis virus) internal ribosome entry sites (IRES), and a puromycin resistance gene. AU5-tagged ARTS was inserted into the XhoI site downstream of the EF-1 promoter. The construct was stably transfected into COS-7 cells. The cells were maintained in medium containing 4 μg/ml puromycin.
Cells were treated for 2 hours with […] of the proteasome inhibitor (MG132, Calbiochem) prior to induction of apoptotis.

COS-7 cells [3] = assay: Immunofluorescence of ARTS and XIAP localization in COS-7 cells; assay type: cell-based, African Green Monkey; settings: COS-7 cells, 50 μM etoposide for 16 hour, with BOC
Method: Cells were fixed with 4% paraformaldehyde in PBS for 20 min at room temperature, washed with PBS, permeabilized with 0.5% Triton-X in PBS for 5 min, and incubated with primary antibodies for 2 hours at room temperature (rabbit polyclonal anti-ARTS (1:20,000; Sigma), monoclonal anti-ARTS, and/or monoclonal anti-XIAP (1:500; used in subsequent Examples). Cells were washed three times with PBS/0.1% Triton-X and incubated with FITC conjugated anti-mouse and Rhodamin^TX-conjugated anti-rabbit secondary antibodies (Jackson). Images were analyzed using a confocal laser microscope (Zeiss LSM 510). Mitochondria were visualized with MitoTracker® Red CMXRos (Molecular Probes/Invitrogen).
For caspase inhibition, we added […] of BOC-Asp(Ome)CH2F (Enzyme Systems Products) one hour prior to addition of the apoptotic agents.

[4] = biological target: T1, Myc epitope-tagged wild-type XIAP (Homo sapiens (Human), UniProt P98170 1-497); assay: co-IP with agarose-anti-myc beads from co-transfected COS-7 cells, Western blot
T1 construct: Expressed by transient transfection in COS-7 cells and used as cell lysate; The construct came from Dr. Colin S. Duckett; also called myc-tagged XIAP; mycXIAP
Method: FIG. 4. ARTS binding to XIAP is specific and related to its apoptotic function. A. In-vivo binding of ARTS to XIAP was tested using co-IP with anti-ARTS, anti-XIAP or mouse IgG as a negative control, followed by anti-XIAP Western blot. B. Lysates of COS-7 cells co-transfected with pcDNA-mycXIAP and AU5-ARTS, AU5-ARTSmGTP or H5 DC were co-immunoprecipitated using agarose-anti-myc beads, followed by Western blot analysis with rabbit anti-myc and anti-ARTS. […] COS-7 cells were transiently transfected with AU5-ARTS, AU5-ARTSmGTP, AU5-ARTSDC or AU5-PNUTL2, and percent apoptosis determined. […] P-values (Anova) were 0.03 for non-treated cells, compared to 0.000004 for 1 hr and 0.00001 for 3 hr STS treatment.
as §1, with “Antibodies against XIAP (as above), Myc (Santa Cruz), or anti-ARTS (NT) antibodies directed against the common N′ terminus of ARTS and H5 (ProSci Incorporated) were used for Western blot.” left out

GST-XIAP fusion protein = biological target: T2, GST-XIAP fusion protein (Homo sapiens (Human), UniProt P98170 1-497); assay: GST-XIAP pull-down from lysate of transfected COS-7 cells, Western blot with anti-AU5
T2 construct: also called pGEX-XIAP; not shown: glutathione-S-transferase (GST) of a pGEX vector
Method: FIG. 3. ARTS specifically binds XIAP in vitro. In vitro binding was tested using a GST pull-down assay. A-B. COS-7 cells were transiently transfected with myc-tagged XIAP. GST pull-down was performed using GST-ARTS and Western blot using anti-XIAP and (A) and anti myc (B). C. COS-7 cells were transiently transfected with AU5-ARTS, AU5-ARTSDC or AU5-H5. GST pull down was performed using GST-XIAP and Western blot with anti-AU5. Binding to glutathione beads alone served as a negative control.
Cells were lysed in RIPA buffer (150 mM NaCl, 50 mM Tris-HCl (pH 8), 1% NP-40, 0.1% SDS, 0.5% deoxycholate acid containing protease inhibitors (mini Complete, Roche)). Samples were divided into two tubes; one was rotated for 4 h at 4° C. with GST-ARTS fusion protein coupled with the glutathione beads, or GST-XIAP fusion protein. The second tube was incubated with glutathione beads alone (negative control). Samples were centrifuged at 4000-RPM at 4° C. for 4 minute and washed five times in lysis buffer, then boiled in sample buffer for 5 minutes to elute bound proteins Proteins were separated on 12.5% SDS-PAGE gel followed by Western blot analysis using monoclonal anti-ARTS antibody (Sigma), monoclonal anti-XIAP antibody (BD Transduction Laboratories) or monoclonal anti-myc antibody (Clontech). […]

XIAP [5] = biological target: T3, XIAP (Homo sapiens, UniProt P98170); assay: GST pull-down assay of ARTS and XIAP; assay type: binding; settings: lysates of COS-7 cells transfected with AU5-tagged construct; Western blot anti-AU5
T3 construct: made in house; host or cells: bacteria (pGEX-XIAP plasmid obtained from Dr. Colin S. Duckett)
Description: For the glutathione-S-transferase (GST)-pull down assays, ARTS was subcloned into the pGEX 4T™ (Pharmacia Biotech) construct; GST-ARTS fusion protein was generated by Polymerase Chain Reaction (PCR) using the following primers: • BamHI-5′-[…]-3′ (SEQ ID No: 4) and • EcoRI-5′ […]-3′ (SEQ ID No: 5) and cloned into BamHI and EcoRI sites in pGEX 4T. Preparation of Beads
For in vitro binding studies, recombinant GST-ARTS or GST-XIAP fusion proteins were purified from bacteria. After sonication, 0.1% Triton X-100 and protease inhibitors (Mini-Complete™, Roche) were added to the bacterial extract followed by 10,000 rotations per minute (RPM) centrifugation. Supernatants of bacterial extracts were collected and incubated in the presence of glutathione-Sepharose 4B beads (Amersham Biosciences) for 30 minute at 4° C. The beads were washed three times.
Cells were lysed in RIPA buffer (150 mM NaCl, 50 mM Tris-HCl (pH 8), 1% NP-40, 0.1% SDS, 0.5% deoxycholate acid containing protease inhibitors (mini Complete, Roche)). Samples were divided into two tubes; one was rotated for 4 h at 4° C. with GST-ARTS fusion protein coupled with the glutathione beads, or GST-XIAP fusion protein. The second tube was incubated with glutathione beads alone (negative control). Samples were centrifuged at 4000-RPM at 4° C. for 4 minute and washed five times in lysis buffer, then boiled in sample buffer for 5 minutes to elute bound proteins Proteins were separated on 12.5% SDS-PAGE gel followed by Western blot analysis using monoclonal anti-ARTS antibody (Sigma), monoclonal anti-XIAP antibody (BD Transduction Laboratories) or monoclonal anti-myc antibody (Clontech).

COS-7 cells [6] = assay: Apoptosis assays (TUNEL, anti-H2A.X) in COS-7 cells; assay type: cell-based, African Green Monkey; parameters: induction of apoptosis (TUNEL): dose or concentration left out as unconfirmed; settings: transiently transfected COS-7 cells, staurosporine (STS) for 1 or 3 hours
Method: Apoptotic cells were detected using the anti-H2A.X antibody (Upstate; Paull, et al., 2000) or TUNEL. For TUNEL assays, COS-7 cells were transiently transfected with AU5-ARTS, AU5-ARTSΔC, AU5-ARTSmGTP and AU5-H5. Twenty-four hours after transfection, the cells were treated with staurosporine (STS) ([…]) for 1 or 3 hours, then fixed and permeabilized. Apoptosis levels were determined using the TUNEL. In situ™ cell death detection TMR kit (Roche) according to the manufacturer's protocol. All slides were coded and experiments were performed in a blind manner.
as §2

T1 sequence (P98170 whole entry): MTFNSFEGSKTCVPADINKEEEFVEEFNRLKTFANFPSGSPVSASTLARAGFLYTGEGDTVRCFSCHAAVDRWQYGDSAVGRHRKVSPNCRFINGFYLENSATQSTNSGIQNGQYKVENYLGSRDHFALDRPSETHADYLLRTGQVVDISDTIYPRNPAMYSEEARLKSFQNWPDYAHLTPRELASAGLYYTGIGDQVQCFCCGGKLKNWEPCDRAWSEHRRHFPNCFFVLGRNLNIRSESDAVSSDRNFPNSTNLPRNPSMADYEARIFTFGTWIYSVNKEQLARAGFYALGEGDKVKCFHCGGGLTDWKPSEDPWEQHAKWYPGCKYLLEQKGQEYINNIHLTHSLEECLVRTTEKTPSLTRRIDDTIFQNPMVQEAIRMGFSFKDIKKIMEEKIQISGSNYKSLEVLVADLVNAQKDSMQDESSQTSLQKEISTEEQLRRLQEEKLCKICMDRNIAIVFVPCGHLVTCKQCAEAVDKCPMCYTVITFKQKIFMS
T2 sequence (P98170 whole entry, the tested form may be a part): as the sequence (P98170 whole entry) above
T3 sequence (P98170 whole entry): as above

Molecule: COC(=O)CC(NC(=O)OC(C)(C)C)C(=O)CF (centres unmarked) [BOC, BOC-Asp(Ome)CH2F, reference compound]
- formation of ARTS-XIAP complexes (XIAP [1]; COS-7 cells treated with staurosporine in the presence of caspase inhibitor BOC): did not inhibit, and in fact slightly increased
- sensitivity of the reduction of XIAP protein to caspase inhibition (XIAP [2]; COS-7 cells treated with staurosporine with or without BOC): not sensitive
- nuclear translocation of ARTS (COS-7 cells [3]): nuclear translocation of ARTS was blocked

Molecule: CC(C)C[C@@H](C=O)NC(=O)[C@H](CC(C)C)NC(=O)[C@H](CC(C)C)NC(=O)OCc1ccccc1 [MG132, reference compound] (Cbz-Leu-Leu-Leu-aldehyde)
- ARTS-induced reduction of XIAP levels (XIAP [2]; cells treated for 2 hours with 20 mM MG132 prior to induction of apoptosis, data not shown): blocked ARTS-induced reduction of XIAP levels

- binding result [4]: no binding
B1: AU5-ARTSmGTP (other)
chain: MIKRFLEDTTDDGELSKFVKDFSGNASCHPPEAKTWASRPQVPEPRPQAPDLYDDDLEFRPPSRPQSSDNQQYFCAPAPLSPSARPRSPWGKLDPYDSSEDDKEYVGFATLPNQVHRKSVKKGFDFTLMVAGESGLENPTLVNSLFLTDLYRDRKLLGAEERIMQTVEITKHAVDIEEKGVRLRLTIVDTPGFGDAVNNTECWKPVAEYIDQQFEQYFRDESGLNRKNIQDNRVHCCLYFISPFGHGYGPSLRLLAPPGAVKGTGQEHQGQGCH
notes: not shown: AU5 tag at the N' terminus

B2: ARTSmGTP: ARTS mutant, three amino acids (G K S with E N P) replaced at the GTP binding site (protein)
chain: B1 chain
modifications: left off: small tags and cut ends
- binding to XIAP in co-IP (XIAP [1]; COS-7 cells co-transfected with pcDNA-mycXIAP and AU5-tagged construct): Neither of these mutants bound to XIAP

- binding result (GST-XIAP fusion protein): no binding
B3: AU5-ARTS ΔC (other)
chain: MIKRFLEDTTDDGELSKFVKDFSGNASCHPPEAKTWASRPQVPEPRPQAPDLYDDDLEFRPPSRPQSSDNQQYFCAPAPLSPSARPRSPWGKLDPYDSSEDDKEYVGFATLPNQVHRKSVKKGFDFTLMVAGESGLGKSTLVNSLFLTDLYRDRKLLGAEERIMQTVEITKHAVDIEEKGVRLRLTIVDTPGFGDAVNNTECWKPV
notes: 1-206 is 274 minus 68; also called AU5-ARTSDC; not shown: AU5 tag at the N' terminus

B4: ARTSΔC: ARTS construct that lacks 68 amino acids at the unique ARTS C′-terminal sequence (protein)
chain: B3 chain
modifications: left off: small tags and cut ends
- binding to GST-XIAP (XIAP [5]): Neither ARTSΔC nor H5 were able to bind to XIAP
- induction of apoptosis (TUNEL) (COS-7 cells [6]): did not induce apoptosis

- binding result [4]: no binding
- binding result (GST-XIAP fusion protein): no binding
B5: AU5-H5 (other, human, UniProt O43236-1 1-478, looked up)
chain: MDRSLGWQGNSVPEDRTEAGIKRFLEDTTDDGELSKFVKDFSGNASCHPPEAKTWASRPQVPEPRPQAPDLYDDDLEFRPPSRPQSSDNQQYFCAPAPLSPSARPRSPWGKLDPYDSSEDDKEYVGFATLPNQVHRKSVKKGFDFTLMVAGESGLGKSTLVNSLFLTDLYRDRKLLGAEERIMQTVEITKHAVDIEEKGVRLRLTIVDTPGFGDAVNNTECWKPVAEYIDQQFEQYFRDESGLNRKNIQDNRVHCCLYFISPFGHGLRPLDVEFMKALHQRVNIVPILAKADTLTPPEVDHKKRKIREEIEHFGIKIYQFPDCDSDEDEDFKLQDQALKESIPFAVIGSNTVVEARGRRVRGRLYPWGIVEVENPGHCDFVKLRTMLVRTHMQDLKDVTRETHYENYRAQCIQSMTRLVVKERNRNKLTRESGTDFPIPAVPPGTDPETEKLIREKDEELRRMQEMLHKIQKQMKENY
notes: Expressed in transfected COS-7 cells; The construct came from Dr. Seong-Jin Kim; also called pEF1-AU5-H5; H5 septin protein; not shown: AU5 tag
